According to paper PMC10286459, “The development of an anti-cancer peptide M1-21 targeting transcription factor FOXM1” (Cell & Bioscience, 2023):
Non-standard residues stand in square brackets, D forms with d. No end group written: not given here.

Tests used:
endogenous FOXM1 protein = target: T1, endogenous FOXM1 protein (human (endogenous in 293T and …, UniProt Q08050 1-763)); experiment: cell-based or functional assay
T1 sequence (looked up): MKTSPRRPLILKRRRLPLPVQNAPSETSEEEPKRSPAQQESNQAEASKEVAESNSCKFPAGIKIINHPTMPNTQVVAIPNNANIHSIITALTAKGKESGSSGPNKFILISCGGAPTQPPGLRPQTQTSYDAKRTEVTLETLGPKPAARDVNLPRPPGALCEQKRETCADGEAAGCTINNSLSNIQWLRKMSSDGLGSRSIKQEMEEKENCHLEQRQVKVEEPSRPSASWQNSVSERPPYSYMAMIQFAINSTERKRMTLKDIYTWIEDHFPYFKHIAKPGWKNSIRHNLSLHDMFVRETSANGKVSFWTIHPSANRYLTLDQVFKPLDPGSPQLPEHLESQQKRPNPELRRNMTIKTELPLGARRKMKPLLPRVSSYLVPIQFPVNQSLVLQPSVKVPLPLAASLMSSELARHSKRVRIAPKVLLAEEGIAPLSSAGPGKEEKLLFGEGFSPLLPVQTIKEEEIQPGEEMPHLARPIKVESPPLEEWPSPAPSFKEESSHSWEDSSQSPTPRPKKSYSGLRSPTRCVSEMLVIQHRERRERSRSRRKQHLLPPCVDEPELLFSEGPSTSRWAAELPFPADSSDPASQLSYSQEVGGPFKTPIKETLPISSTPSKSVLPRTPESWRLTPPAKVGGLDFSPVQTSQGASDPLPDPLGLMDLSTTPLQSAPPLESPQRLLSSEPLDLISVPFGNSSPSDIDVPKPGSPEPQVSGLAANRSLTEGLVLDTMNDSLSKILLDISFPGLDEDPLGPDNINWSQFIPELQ

GFP-FOXM1(232-332) = target: T2, GFP-FOXM1(232-332) (human, UniProt Q08050-3 232-332); experiment: MST
T2 construct: also called GFP-M1(232–332); FOXM1 DBD
T2 sequence (looked up): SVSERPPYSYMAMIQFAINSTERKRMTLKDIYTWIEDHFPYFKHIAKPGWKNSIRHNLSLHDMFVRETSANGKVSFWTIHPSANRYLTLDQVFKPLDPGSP

GFP-FOXM1(1-138) = target: T3, GFP-FOXM1(1-138) (human, UniProt Q08050 1-138); experiment: MST
T3 construct: also called GFP-M1(1-138); FOXM1 N-terminal domain
T3 sequence (looked up): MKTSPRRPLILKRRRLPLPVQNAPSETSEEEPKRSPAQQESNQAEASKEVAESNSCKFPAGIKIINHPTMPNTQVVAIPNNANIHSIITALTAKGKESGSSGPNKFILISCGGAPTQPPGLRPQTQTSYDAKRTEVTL

GFP-FOXM1(688-748) = target: T4, GFP-FOXM1(688-748) (human); experiment: MST
T4 construct: also called GFP-M1(688–748); FOXM1 C-terminus
T4 sequence (Q08050 688-748, looked up): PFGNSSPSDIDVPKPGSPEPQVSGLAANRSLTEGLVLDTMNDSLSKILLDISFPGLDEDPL

GFP-FOXM1 = target: T5, GFP-FOXM1 (human, UniProt Q08050-3 1-801); experiment: MST
T5 sequence (looked up): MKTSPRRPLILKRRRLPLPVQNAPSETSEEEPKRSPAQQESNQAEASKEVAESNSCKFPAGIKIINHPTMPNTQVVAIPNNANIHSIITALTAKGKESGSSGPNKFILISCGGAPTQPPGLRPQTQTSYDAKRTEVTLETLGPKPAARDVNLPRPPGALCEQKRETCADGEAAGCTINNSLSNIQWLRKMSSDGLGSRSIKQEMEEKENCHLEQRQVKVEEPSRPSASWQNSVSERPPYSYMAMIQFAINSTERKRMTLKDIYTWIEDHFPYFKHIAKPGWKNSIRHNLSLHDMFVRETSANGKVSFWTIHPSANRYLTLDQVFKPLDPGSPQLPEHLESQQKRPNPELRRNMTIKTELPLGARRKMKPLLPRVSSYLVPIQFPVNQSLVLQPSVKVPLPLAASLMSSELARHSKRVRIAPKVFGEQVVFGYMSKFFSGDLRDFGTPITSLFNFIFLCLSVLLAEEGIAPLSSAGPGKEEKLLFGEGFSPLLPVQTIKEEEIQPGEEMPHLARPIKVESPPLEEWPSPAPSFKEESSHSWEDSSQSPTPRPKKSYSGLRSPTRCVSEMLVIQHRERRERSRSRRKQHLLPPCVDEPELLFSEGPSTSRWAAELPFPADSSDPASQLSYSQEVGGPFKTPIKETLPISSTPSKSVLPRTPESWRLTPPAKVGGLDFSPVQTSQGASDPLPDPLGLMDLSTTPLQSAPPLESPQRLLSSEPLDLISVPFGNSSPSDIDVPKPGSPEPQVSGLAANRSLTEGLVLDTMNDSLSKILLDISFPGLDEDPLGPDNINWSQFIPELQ

B1: M1-21 (peptide)
chain: [dQ][dT][dQ][dP][dR][dL]G[dP][dP][dQ][dT][dP][dA]GG[dC][dS][dI][dL][dI][dF]
modifications: not fully specified; also: retro-inverso, chain direction relative to parent not given here
With B1 the “IC50 of cell viability, MDA-MB-231 cells, 48 h (trypan blue)” value (endogenous FOXM1 protein) was 33.8 µM, the Kd (GFP-FOXM1(232-332)) was 5.71 µM and the Kd (GFP-FOXM1(1-138)) was 6.27 µM. The Kd (GFP-FOXM1(688-748)) was 1790 nM and the Kd (GFP-FOXM1) was 12.5 µM.
